Results: patent US7829082B2, “Catheter composition and uses thereof” (Genentech, Inc., priority 2001, dated 2010)
Values joined by “and” are separate entries in the source; they are usually repeats but may differ in a detail not shown here. Equal entries are not always repeated.

What was measured:
[1] = biological target: T1, in vitro clot consisting of plasminogen and fibrin (Homo sapiens, UniProt P00747+P02671+P02675+P02679); experiment: Clot lysis assay of tenecteplase; type: biochemical; settings: for overall percent specific activity of the recovered protein: over 24 hours at ambient conditions; for Clot lysis (+cent): after centrifugation; for Clot lysis (−cent): before centrifugation
T1 construct: Plasminogen kept frozen at or below −60° C. until use; purchased Biocell (fibrinogen); Calbiochem (thrombin)
Source text: The assay works as follows: Reagents are substances added to a solution of another substance to participate in a chemical reaction. In this case, contents of boat 1 will react with contents of boat 2 to form a standardized clot. Thrombin (boat 2), when mixed with plasminogen and fibrinogen (boat 1), causes the conversion of fibrinogen to fibrin and forms a standardized in vitro clot consisting of plasminogen and fibrin. A test sample of t-PA is then exposed to the clot. T-PA causes the conversion of plasminogen to plasmin, and plasmin then breaks apart the fibrin strands. As the clot breaks apart, there is a change in the absorbance (light) characteristics. The absorbance is plotted versus time.
In such test, thrombin and fibrinogen are mixed together to produce fibrin; plasminogen and tenecteplase are mixed together to produce plasmin; and together the fibrin and plasmin lyse the clot. The test measures the effectiveness of tenecteplase to act with plasminogen to form plasmin and thus lyse the clot.
(§1) Tenecteplase (TNKASE™ variant of t-PA), obtained from Genentech, Inc. (e.g., U.S. Pat. No. 5,612,029) (50 mg/vial) was reconstituted to 5 mg/mL with 10 mL of SWFI. Using a 3 & 5 cc syringe and 22 G needle, 1, 2, and 5 mL of normal saline (NS) was removed from separate IV bags (500 mL NS, Baxter), in duplicates. The same volume was replaced with the reconstituted drug product to give a final tenecteplase concentration inside the bags of 0.01, 0.02, and 0.05 mg/mL. The bags were then mixed gently by inversions. A 10-mL aliquot of the diluted tenecteplase solution was sampled via the IV port with a 10-cc syringe and dispensed into two 5-cc clean clear glass vials (6 mL in one and the remaining in the other). The IV bags containing the diluted tenecteplase were placed on a bench top under normal fluorescent light at ambient conditions for 24 hours. Additional aliquots (10 mL each) from these IV bags were sampled after 8 and 24 hours of storage.
All the aliquots of tenecteplase were subjected to the clot lysis assay described above to determine the in vitro bioactivity of tenecteplase in these aliquots. The samples were diluted to two or three different concentrations within assay range (200-500 ng/mL) with the diluent. Tenecteplase was used as an internal reference. All values obtained were normalized to the tenecteplase reference material. The bioactivity was assayed by clot lysis before and after centrifugation.

[2] = pH of tenecteplase dilutions; type: physicochemical; settings: for observed pH: over 24 hours of storage at ambient conditions
Description: as §1
The pH determination was performed using a RADIOMETER PHM 93™ pH meter and a microelectrode (MI-410™, Microelectrode, Inc.). The pH meter was standardized with pH 4.01 and 7.00 buffer standards prior to measurement at ambient conditions.

[3] = Tenecteplase concentration by RP-HPLC before and after centrifugation; type: physicochemical; settings: for Conc. (+cent) by RP-HPLC: after centrifugation; for Conc. (−cent) by RP-HPLC: before centrifugation
Description: as §1
The clot lysis activity and protein concentrations (determined by RP-HPLC) were performed before and after centrifugation of each sample aliquot. This was to ensure that any precipitation that was not visible to the naked eye was removed prior to assay for more accurate interpretation of the results. […] At 0.01 mg/mL, the percent change in concentration was 57% immediately after dilution and increased to 71% after 24 hours. […] This observation can be explained, without being limited to any one theory, by a more pronounced protein adsorption at a lower concentration that usually occurs instantly and saturates with time.

[4] = targeted conc. 0.01 mg/mL in 0.9% NaCl IV bag, T = 0
[5] = targeted conc. 0.01 mg/mL in 0.9% NaCl IV bag, T = 8 hours ambient
[6] = targeted conc. 0.01 mg/mL in 0.9% NaCl IV bag, T = 24 hours ambient
[7] = targeted conc. 0.02 mg/mL in 0.9% NaCl IV bag, T = 0
[8] = targeted conc. 0.02 mg/mL in 0.9% NaCl IV bag, T = 8 hours ambient
[9] = targeted conc. 0.02 mg/mL in 0.9% NaCl IV bag, T = 24 hours ambient
[10] = targeted conc. 0.05 mg/mL in 0.9% NaCl IV bag, T = 0
[11] = targeted conc. 0.05 mg/mL in 0.9% NaCl IV bag, T = 8 hours ambient
[12] = targeted conc. 0.05 mg/mL in 0.9% NaCl IV bag, T = 24 hours ambient

T1 sequence (P00747 20-810 limits assumed): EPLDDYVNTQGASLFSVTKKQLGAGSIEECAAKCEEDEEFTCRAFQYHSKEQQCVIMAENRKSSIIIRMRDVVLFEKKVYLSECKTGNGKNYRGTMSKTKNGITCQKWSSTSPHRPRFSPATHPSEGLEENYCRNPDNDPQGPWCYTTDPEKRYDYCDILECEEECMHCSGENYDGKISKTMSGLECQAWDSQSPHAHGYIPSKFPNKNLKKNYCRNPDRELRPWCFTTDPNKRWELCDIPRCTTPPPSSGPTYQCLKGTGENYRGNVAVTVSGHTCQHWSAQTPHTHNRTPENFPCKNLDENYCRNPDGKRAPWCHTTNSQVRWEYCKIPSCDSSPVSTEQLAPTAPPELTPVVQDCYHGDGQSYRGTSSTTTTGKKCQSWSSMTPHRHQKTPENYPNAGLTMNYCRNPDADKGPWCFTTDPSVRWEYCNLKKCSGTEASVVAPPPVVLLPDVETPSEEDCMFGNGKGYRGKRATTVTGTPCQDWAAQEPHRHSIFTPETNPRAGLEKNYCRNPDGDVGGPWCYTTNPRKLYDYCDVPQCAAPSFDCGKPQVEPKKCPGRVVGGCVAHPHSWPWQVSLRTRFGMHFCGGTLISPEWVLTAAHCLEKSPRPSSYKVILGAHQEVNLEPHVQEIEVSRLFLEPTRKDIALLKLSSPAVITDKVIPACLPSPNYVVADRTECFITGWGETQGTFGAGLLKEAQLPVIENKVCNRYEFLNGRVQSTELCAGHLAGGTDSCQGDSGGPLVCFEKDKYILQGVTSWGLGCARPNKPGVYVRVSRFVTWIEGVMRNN
T1 sequence (P02671 36-629 limits assumed): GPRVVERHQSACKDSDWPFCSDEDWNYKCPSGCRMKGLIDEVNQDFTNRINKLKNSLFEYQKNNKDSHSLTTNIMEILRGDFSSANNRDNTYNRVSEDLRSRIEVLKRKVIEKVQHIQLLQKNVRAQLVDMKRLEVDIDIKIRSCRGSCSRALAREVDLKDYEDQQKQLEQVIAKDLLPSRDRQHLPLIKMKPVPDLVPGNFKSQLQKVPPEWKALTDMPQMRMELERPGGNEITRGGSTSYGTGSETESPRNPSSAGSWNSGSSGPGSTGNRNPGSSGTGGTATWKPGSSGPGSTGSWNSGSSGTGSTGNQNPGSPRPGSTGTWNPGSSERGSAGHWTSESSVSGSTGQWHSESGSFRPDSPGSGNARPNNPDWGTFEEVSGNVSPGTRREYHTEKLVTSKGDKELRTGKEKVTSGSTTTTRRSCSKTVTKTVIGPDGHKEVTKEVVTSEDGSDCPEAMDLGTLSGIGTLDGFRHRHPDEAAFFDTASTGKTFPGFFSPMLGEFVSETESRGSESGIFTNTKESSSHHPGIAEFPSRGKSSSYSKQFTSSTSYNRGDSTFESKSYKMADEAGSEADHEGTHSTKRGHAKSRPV
T1 sequence (P02675 45-491 limits assumed): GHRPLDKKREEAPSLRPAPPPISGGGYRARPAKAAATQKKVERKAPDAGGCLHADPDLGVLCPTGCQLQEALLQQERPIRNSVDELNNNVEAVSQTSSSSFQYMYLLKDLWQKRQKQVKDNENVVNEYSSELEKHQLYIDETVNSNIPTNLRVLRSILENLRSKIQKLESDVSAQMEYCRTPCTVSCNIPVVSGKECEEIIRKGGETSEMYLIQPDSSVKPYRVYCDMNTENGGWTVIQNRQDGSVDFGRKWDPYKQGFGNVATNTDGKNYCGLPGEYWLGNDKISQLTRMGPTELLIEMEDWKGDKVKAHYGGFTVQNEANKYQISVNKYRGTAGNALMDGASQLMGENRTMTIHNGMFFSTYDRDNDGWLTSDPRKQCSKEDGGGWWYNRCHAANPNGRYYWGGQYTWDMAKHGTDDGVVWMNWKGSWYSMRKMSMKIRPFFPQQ
T1 sequence (P02679 27-437 isoform P02679-2 limits assumed): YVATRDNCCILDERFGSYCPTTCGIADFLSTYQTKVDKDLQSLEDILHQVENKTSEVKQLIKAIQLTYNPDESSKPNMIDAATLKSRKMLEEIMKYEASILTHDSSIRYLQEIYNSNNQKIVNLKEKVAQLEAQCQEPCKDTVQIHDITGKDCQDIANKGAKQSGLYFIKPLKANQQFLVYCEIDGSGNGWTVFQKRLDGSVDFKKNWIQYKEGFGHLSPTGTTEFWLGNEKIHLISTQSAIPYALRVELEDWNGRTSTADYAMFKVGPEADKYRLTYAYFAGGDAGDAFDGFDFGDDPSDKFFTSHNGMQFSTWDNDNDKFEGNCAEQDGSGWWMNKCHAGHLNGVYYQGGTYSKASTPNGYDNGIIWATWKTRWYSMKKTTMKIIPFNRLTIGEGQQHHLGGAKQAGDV

B1: Tenecteplase: a t-PA variant designated T103N, N117Q, K296A, H297A,R298A,R299A available as TNKASE™ brand from Genentech, Inc.; diluted in 0.9% NaCl (protein, UniProt P00750 36-562, looked up, variant T103N N117Q K296A H297A R298A R299A)
Tissue-type plasminogen …: SYQVICRDEKTQMIYQQHQSWLRPVLRSNRVEYCWCNSGRAQCHSVPVKSCSEPRCFNGGTCQQALYFSDFVCQCPEGFAGKCCEIDTRATCYEDQGISYRGNWSTAESGAECTNWQSSALAQKPYSGRRPDAIRLGLGNHNYCRNPDRDSKPWCYVFKAGKYSSEFCSTPACSEGNSDCYFGNGSAYRGTHSLTESGASCLPWNSMILIGKVYTAQNPSAQALGLGKHNYCRNPDGDAKPWCHVLKNRRLTWEYCDVPSCSTCGLRQYSQPQFRIKGGLFADIASHPWQAAIFAAAAASPGERFLCGGILISSCWILSAAHCFQERFPPHHLTVILGRTYRVVPGEEEQKFEVEKYIVHKEFDDDTYDNDIALLQLKSDSSRCAQESSVVRTVCLPPADLQLPDWTECELSGYGKHEALSPFYSERLKEAHVRLYPSSRCTSQHLLNRTVTDNMLCAGDTRSGGPQANLHDACQGDSGGPLVCLNDGRMTLVGIISWGLGCGQKDVPGVYTKVTNYLDWIRDNMRP
overall percent specific activity of the recovered protein ([1]; 0.01 mg/mL): ≥ 100%
overall percent specific activity of the recovered protein ([1]; 0.02 mg/mL): ≥ 92%
overall percent specific activity of the recovered protein ([1]; 0.05 mg/mL): ≥ 80%
Lytic activity in clot lysis effectiveness test ([1]; diluted down to 0.01 mg/mL in normal saline): lytically active
Lytic activity after storage ([1]; diluted to 0.01, 0.02, and 0.05% mg/mL in 0.9% NaCl IV bags (500 mL), after 24 hours of storage at ambient conditions): lytically active
% Specific Activity [1, 4]: 100%
Clot lysis (+cent) [1, 4]: 0.004 mg/mL
Clot lysis (−cent) [1, 4]: 0.006 mg/mL
% Specific Activity [1, 5]: 125% and 120%
Clot lysis (+cent) [1, 5]: 0.005 mg/mL and 0.006 mg/mL
Clot lysis (−cent) [1, 5]: 0.007 mg/mL and 0.008 mg/mL
% Specific Activity [1, 6]: 100% and 120%
Clot lysis (+cent) [1, 6]: 0.005 mg/mL and 0.006 mg/mL
Clot lysis (−cent) [1, 6]: 0.007 mg/mL
% Specific Activity [1, 7]: 92%
Clot lysis (+cent) [1, 7]: 0.012 mg/mL
Clot lysis (−cent) [1, 7]: 0.015 mg/mL
% Specific Activity [1, 8]: 92%
Clot lysis (+cent) [1, 8]: 0.012 mg/mL
Clot lysis (−cent) [1, 8]: 0.015 mg/mL and 0.013 mg/mL
% Specific Activity [1, 9]: 100% and 92%
Clot lysis (+cent) [1, 9]: 0.013 mg/mL and 0.012 mg/mL
Clot lysis (−cent) [1, 9]: 0.015 mg/mL and 0.016 mg/mL
% Specific Activity [1, 10]: 82% and 78%
Clot lysis (+cent) [1, 10]: 0.037 mg/mL and 0.036 mg/mL
Clot lysis (−cent) [1, 10]: 0.040 mg/mL and 0.041 mg/mL
% Specific Activity [1, 11]: 76% and 82%
Clot lysis (+cent) [1, 11]: 0.034 mg/mL and 0.037 mg/mL
Clot lysis (−cent) [1, 11]: 0.039 mg/mL
% Specific Activity [1, 12]: 93% and 91%
Clot lysis (+cent) [1, 12]: 0.040 mg/mL
Clot lysis (−cent) [1, 12]: 0.043 mg/mL
observed pH ([2]; 0.01 mg/mL in NS): 6.7-6.8
observed pH ([2]; 0.02 mg/mL in NS): 6.8-6.9
observed pH ([2]; 0.05 mg/mL in NS): 7.1-7.2
pH [2, 4]: 6.70 and 6.73
pH [2, 6]: 6.77 and 6.71
pH [2, 7]: 6.93 and 6.83
pH [2, 9]: 6.86 and 6.90
pH [2, 10]: 7.12 and 7.15
pH [2, 12]: 7.10 and 7.07
% Change in Conc. (±cent) [3, 4]: 57%
Conc. (+cent) by RP-HPLC [3, 4]: 4000 ng/mL
Conc. (−cent) by RP-HPLC [3, 4]: 7000 ng/mL
% Change in Conc. (±cent) [3, 5]: 57% and 63%
Conc. (+cent) by RP-HPLC [3, 5]: 4000 ng/mL and 5000 ng/mL
Conc. (−cent) by RP-HPLC [3, 5]: 7000 ng/mL and 8000 ng/mL
% Change in Conc. (±cent) [3, 6]: 71%
Conc. (+cent) by RP-HPLC [3, 6]: 5000 ng/mL
Conc. (−cent) by RP-HPLC [3, 6]: 7000 ng/mL
% Change in Conc. (±cent) [3, 7]: 76%
Conc. (+cent) by RP-HPLC [3, 7]: 13000 ng/mL
Conc. (−cent) by RP-HPLC [3, 7]: 17000 ng/mL
% Change in Conc. (±cent) [3, 8]: 81%
Conc. (+cent) by RP-HPLC [3, 8]: 13000 ng/mL
Conc. (−cent) by RP-HPLC [3, 8]: 16000 ng/mL
% Change in Conc. (±cent) [3, 9]: 81%
Conc. (+cent) by RP-HPLC [3, 9]: 13000 ng/mL
Conc. (−cent) by RP-HPLC [3, 9]: 16000 ng/mL
% Change in Conc. (±cent) [3, 10]: 94% and 98%
Conc. (+cent) by RP-HPLC [3, 10]: 45000 ng/mL and 46000 ng/mL
Conc. (−cent) by RP-HPLC [3, 10]: 48000 ng/mL and 47000 ng/mL
% Change in Conc. (±cent) [3, 11]: 96%
Conc. (+cent) by RP-HPLC [3, 11]: 45000 ng/mL
Conc. (−cent) by RP-HPLC [3, 11]: 47000 ng/mL
% Change in Conc. (±cent) [3, 12]: 90% and 96%
Conc. (+cent) by RP-HPLC [3, 12]: 43000 ng/mL and 44000 ng/mL
Conc. (−cent) by RP-HPLC [3, 12]: 48000 ng/mL and 46000 ng/mL
